B1: FOG2[413-789]: The FOG2 protein comprising the amino acid sequence ranging 413-789th amino acid residues of FOG2 full-length amino acid sequence (protein, UniProt Q8WW38 413-789, looked up, fragment)
chain: DLLTRSELPQSQKAMQTKDASSDTELDKCEKKTQLFLTNQRPEIQPTTNKQSFSYTKIKSEPSSPRLASSPVQPNIGPSFPVGPFLSQFSFPQDITMVPQASEILAKMSELVHRRLRHGSSSYPPVIYSPLMPKGATCFECNITFNNLDNYLVHKKHYCSSRWQQMAKSPEFPSVSEKMPEALSPNTGQTSINLLNPAAHSADPENPLLQTSCINSSTVLDLIGPNGKGHDKDFSTQTKKLSTSSNNDDKINGKPVDVKNPSVPLVDGESDPNKTTCEACNITFSRHETYMVHKQYYCATRHDPPLKRSASNKVPAMQRTMRTRKRRKMYEMCLPEQEQRPPLVQQRFLDVANLNNPCTSTQEPTEGLGECYHPRCD
B2: FOG2[1-412]: Truncated FOG2 mutant in pCK-flag vector, residues 1-412 (protein, UniProt Q8WW38 1-412, looked up, fragment)
chain: MSRRKQSKPRQIKRPLEDAIEDEEEECPSEETDIISKGDFPLEESFSTEFGPENLSCEEVEYFCNKGDDEGIQETAESDGDTQSEKPGQPGVETDDWDGPGELEVFQKDGERKIQSRQQLPVGTTWGPFPGKMDLNNNSLKTKAQVPMVLTAGPKWLLDVTWQGVEDNKNNCIVYSKGGQLWCTTTKAISEGEELIAFVVDFDSRLQAASQMTLTEGMYPARLLDSIQLLPQQAAMASILPTAIVNKDIFPCKSCGIWYRSERNLQAHLMYYCSGRQREAAPVSEENEDSAHQISSLCPFPQCTKSFSNARALEMHLNSHSGVKMEEFLPPGASLKCTVCSYTADSVINFHQHLFSHLTQAAFRCNHCHFGFQTQRELLQHQELHVPSGKLPRESDMEHSPSATEDSLQPAT
modifications: FLAG tag

Key:
Format in all cases: cell-based
MDA MB 231 cells [1] = experiment: Cell migration, modified Boyden chamber method; conditions: 4 μM peptide, 2 days of treatment, 18 hr migration, FIG. 3B
Experimental: MDA MB 231 cells were transfected with pCK-flag (control), FOG2-wt (wild type) and FOG2 mutants having modified zinc finger domain (FOG2-ZF-5-m and FOG2-ZF-6-m). The cell migration was then analyzed using the modified Boyden chamber method (Albini A et al., Cancer Res 1987 47:3239-45). Following the transfection for 24 hr, MDA MB 231 cells (1×10^5) were suspended in a serum-free medium and seeded in triplicate in the upper part of BD chamber ([…] pore size). The lower part was filled with the serum-free medium. Following the incubation at 37° C. for 18 hr, non-migrating cells positioned at the upper surface of filters were cleaned with a cotton swab. The migrating cells passing through the lower surface of filters were fixed with 70% ethanol and treated with the Giemsa staining solution for 50 min. Then, the cells were rinsed with water and observed under a microscope. The cell migration rate was determined by counting the number of cells present in randomly-selected six sections and the migration range was expressed as the average number of cells per a microscopic field.
MDA MB 231 cells were incubated with 4 μM Mock (control, DMSO), 4 μM ZF-5-wt-24, 4 μM ZF-5-m-24, 4 μM ZF-5-wt-20 or 4 μM ZF-3-wt-21. After treatment, the cell migration was analyzed using the modified Boyden chamber method (Albini A et al., Cancer Res 1987 47:3239-45). After 2 days of treatment, MDA MB 231 cells (1×10^5) were suspended in the serum free medium and seeded in triplicate in the upper part of BD chamber ([…] pore size). The lower part was filled with the serum free medium. Following the incubation at 37° C. for 18 hr, non-migrating cells positioned at the upper surface of filters were cleaned with the cotton swab. The migrating cells passing through the lower side surface of filters were fixed with 70% ethanol and stained using the Giemsa stain method. The cell migration rate was determined by counting the number of cells present in randomly-selected six sections and the migration range was expressed as the average number of cells per a microscopic field.

PI3K [2] = target: T1, PI3K (Homo sapiens, UniProt P27986); experiment: IGF-1-induced PI3K activation in Hep3B cells incubated with peptides; parameters: The cell lysates were immunoprecipitated with p85α (sc-1637, Santa Cruz) and Protein G-Sepharose beads; endogenous in cells; host or cells: Hep3B; conditions: 4 μM peptides, 48 hr, FIG. 2C
T1 sequence (P27986 whole entry): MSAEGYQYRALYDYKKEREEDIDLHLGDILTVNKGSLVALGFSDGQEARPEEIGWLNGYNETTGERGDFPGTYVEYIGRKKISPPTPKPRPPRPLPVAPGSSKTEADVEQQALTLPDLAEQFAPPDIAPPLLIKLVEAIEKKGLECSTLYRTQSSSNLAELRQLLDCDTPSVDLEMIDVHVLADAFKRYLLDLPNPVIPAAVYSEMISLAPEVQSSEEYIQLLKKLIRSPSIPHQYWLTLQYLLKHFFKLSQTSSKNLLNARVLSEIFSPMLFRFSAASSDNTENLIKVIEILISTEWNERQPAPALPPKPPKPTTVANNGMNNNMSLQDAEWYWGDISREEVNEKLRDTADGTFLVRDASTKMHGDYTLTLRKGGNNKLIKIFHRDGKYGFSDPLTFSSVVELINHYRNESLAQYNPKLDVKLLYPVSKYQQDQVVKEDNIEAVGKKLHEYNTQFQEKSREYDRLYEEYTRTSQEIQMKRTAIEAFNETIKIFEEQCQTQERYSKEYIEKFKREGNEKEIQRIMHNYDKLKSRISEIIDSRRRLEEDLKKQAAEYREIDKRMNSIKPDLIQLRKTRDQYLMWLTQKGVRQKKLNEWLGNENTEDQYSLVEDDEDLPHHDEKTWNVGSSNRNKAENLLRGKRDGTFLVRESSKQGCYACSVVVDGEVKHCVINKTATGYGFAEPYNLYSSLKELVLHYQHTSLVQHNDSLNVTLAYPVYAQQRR
Experimental: (§1) For measurement of PI3K activity, 10 μl of sonicated PIP2 (1 μg/μl, Calbiochem), 10 μl of 100 mM MgCl2 and 1 μl of [-^32P]ATP (500 μCi/ml) were added to the kinase buffer (10 mM Tris-HCl (pH 7.4), 150 mM NaCl, 1 mM Na3VO4, 10 mM ZnCl2) and incubated at 37° C. for 30 min. After incubation, 20 μl of 6 N HCl was added to stop the reaction and PIP2 was extracted by treatment with 200 μl of methanol:chloroform (1:1) solution. The amount of radioactively labeled PIP2 in the extract was measured using a scintillator counter.
In addition, Hep3B liver cancer cells were incubated with 4 μM peptides for 48 hr and the PI3K activity was analyzed.

MDA MB 231 cells [3] = experiment: Cell proliferation MTT assay; conditions: synthesized peptide, increasing concentration, FIG. 6B
Experimental: Because the PI3K activation is critical in cell growth, the cell proliferation was analyzed to investigate the inhibitory effect of the FOG2 zinc finger domain using the MTT assay.
MDA MB 231 cells were seeded in a 96-well plate, and transfected with 100 ng DNA of pCKflag, FOG2-wt, FOG2-ZF-5-m or FOG2-ZF-6-m using Lipofectamine 2000. On 3 days post-transfection, the MTT assay was performed.
MDA MB 231 cells (2×10^3 cells) were seeded in a 96-well plate and treated with 4 μM each peptide for 3 days. After the treatment, 50 μl of MTT solution (2 mg/ml) was added to each well, incubated at 37° C. for 1 hr. Then, 150 μl of DMSO was added to each well and the absorbance value of each well was measured at 590 nm using a microplate reader.

PI3K [4] = target: T1, PI3K; experiment: PI3K activity in MDA MB 231 cells incubated with zinc finger domain peptides; parameters: The cell lysates were immunoprecipitated with p85α (sc-1637, Santa Cruz) and Protein G-Sepharose beads; endogenous in cells
Experimental: as §1
For peptide treatment, cells were trypsinized to detach them from a culture dish and their aliquot (2×10^5 cells) was incubated with 4 μM peptides in 100 mm dishes. The control was incubated with Mock (DMSO).

MDA MB 231 cells [5] = experiment: Apoptosis by FACS analysis (propidium iodide) in MDA MB 231 cells; conditions: transfected with 1 μg FOG2 fragment, 2 days, FIG. 7A
Experimental: PI3K inactivation has been reported to cause cancer cell apoptosis, and FOG2 is known to inhibit the PI3K activity. To test whether PI3K inactivation by overexpressing FOG2 induces apoptosis, MDA MB 231 cells overexpressed FOG2 were analyzed with FACS.
MDA MB 231 cells were incubated with Full-FOG2[1-1151], FOG2[1-412], FOG2[413-789] or FOG2[802-1151]. The cells (5×10^4) were seeded in a 12-well plate and transfected with 1 μg of Full-FOG2[1-1151], FOG2[1-412], FOG2[413-789] or FOG2[802-1151] using Lipofectamine 2000. The cells were incubated at 37° C. for 2 days and subject to FACS analysis.
The cells were incubated with FOG2 fragments and fixed with 70% ethanol for 16 hr. The fixed cells were stained using RNase (5 mg/ml) and propidium iodide ([…]). The amount of DNA in stained cells was analyzed with Cell Quest program of FACS caliber (Becton Dickinson).

| Molecule | reduction of cell migration (MDA MB 231 cells [1]) | IGF-1-induced PI3K activation (PI3K [2]) | inhibitory effect on cell proliferation (MDA MB 231 cells [3]) | inhibition of PI3K activity (PI3K [4]; MDA MB 231 cells, 4 μM peptide, 48 hr, relative to ZF-5-wt-24, FIG. 5B) | PI3K activity (PI3K [4]; synthesized peptides, FIG. 5) | number of apoptotic cells (MDA MB 231 cells [5]) |
| --- | --- | --- | --- | --- | --- | --- |
| ZF-5-m-24: FOG2 mutant peptide with altered fifth zinc finger domain (24 amino acids) (CFECNITFNNLDNYLYLVAKKAYC) | not observed | did not inhibit | does not | approximately 30% | does not affect |  |
| ZF-3-wt-21: The peptide not comprising the fifth zinc finger domain of FOG2 (LKCTVCSYTADSVINFHQHLF) [reference compound] | not observed | did not inhibit |  |  |  |  |
| B1 |  |  |  |  |  | increased |
| B2 |  |  |  |  |  | reduces the apoptosis |
